Measurements from patent US20210261937.
Residue numbers refer to the chain shown, from its start.

B1: Ulp1 from S. cerevisiae (protein)
chain: LVPELNEKDDDQVQKALASRENTQLMNRDNIEITVRDFKTLAPRRWLNDTIIEFFMKYIEKSTPNTVAFNSFFYTNLSERGYQGVRRWMKRKKTQIDKLDKIFTPINLNQSHWALGIIDLKKKTIGYVDSLSNGPNAMSFAILTDLQKYVMEESKHTIGEDFDLIHLDCPQQPNGYDCGIYVCMNTLYGSADAPLDFDYKDAIRMRRFIAHLILTDALK
B2: bdSENP1 from B. distachyon (protein)
chain: PFVPLTDEDEDNVRHALGGRKRSETLSVHEASNIVITREILQCLNDKEWLNDEVINLYLELLKERELREPNKFLKCHFFNTFFYKKLINGGYDYKSVRRWTTKRKLGYNLIDCDKIFVPIHKDVHWCLAVINIKEKKFQYLDSLGYMDMKALRILAKYLVDEVKDKSGKQIDVHAWKQEGVQNLPLQENGWDCGMFMLKYIDFYSRDMELVFGQKHMSYFRRRTAKEILDLKAG
B3: bdSENP1^MutG (protein)
chain: PFVPLTDEDEDNVRHALGGRKSSETLSVHEASHIVITREILQCLNDKEWLNDEVINLYLELLKERELREPNKFLKCHFFNTFFYKKLINGGYDYKSVRRWTTVKLGYNLIDCDKIFVPIHKDVHWCLAVINIKEKKFQYLDSLGYMDMKALRILAKYLVDEVKDKSGKQIDVHAWKQEGVQNLPLQENGWDCGMFMLKYIDFYSRDMELVFGQKHMSYFRRRTAKEILDLKAG
B4: bdSENP1^MutH (protein)
chain: PFVPLTDEDEDNVRHALGGRKPSETLSVHEASAIVITREILQCLNDKEWLNDEVINLYLELLKERELREPNKFLKCHFFNTFFYKKLINGYDYKSVREWTTMRKLGYNLIDCDKIFVPIHKDVHWCLAVINIKEKKFQYLDSLGYMDMKALRILAKYLVDEVKDKSGKQIDVHAWKQEGVQNLPLQENGWDCGMFMLKYIDFYSRDMELVFGQKHMSYFRRRTAKEILDLKAG
B5: bdSENP1^MutJ (protein)
chain: B2 chain with R22E, N33S, R99S, K103T
B6: bdSENP1^Muti (protein)
chain: B2 chain with R22K, N33H, R99E, K103R
B7: bdSENP1^MutK (protein)
chain: B2 chain with R22V, N33Q, R99V, K103G

molecular target: hsSUMO2-MBP fusion protein with the bdSUMO^Mut11 exchanges

In the case of B1, the “cleavage of SUMO-MBP fusion, 1 h at 25 °C (FIG. 14)” value (“cleavage of SUMO-MBP fusion, 1 h” below) is reported as “allowed cleavage resistance against Ulp1, SUMOstar protease, hsSENP2 and bdSENP1”.
In the case of B2, the “cleavage of SUMO-MBP fusion, 1 h” value is reported as “allowed cleavage resistance against Ulp1, SUMOstar protease, hsSENP2 and bdSENP1”.

molecular target: scSUMO-MBP fusion protein

Compared with B1, B3 is lower in cleavage of the SUMO fusion protein: 100 % cleavage for the first, < 25 % cleavage for the second.

B5 and B2 cannot be ordered by cleavage of the SUMO fusion protein: < 25 % cleavage for the first, < 50 % cleavage for the second.

B1 was tested, and the “protease concentration required to efficiently cleave 100 µM cognate substrate, 1 h at 0 °C” value was “Around 15-50 nM of these two proteases were required to efficiently cleave the cognate substrate”.

With B4 the “cleavage of the SUMO fusion protein” value was “resistant”.
With B6 the “cleavage of the SUMO fusion protein” value was “resistant”.
In the case of B7, the “cleavage of the SUMO fusion protein” value is reported as “resistant”.

molecular target: bdSUMO Mut14-MBP fusion protein

With B1 the “cleavage of the SUMO fusion protein” value was “resistant”.

Going from B3 to B4, the cleavage of the SUMO fusion protein rises from < 50 % cleavage to 100 % cleavage.

B5 and B6 cannot be ordered by cleavage of the SUMO fusion protein: < 50 % cleavage for the first, < 50 % cleavage for the second.

Compared with B7, B2 is lower in cleavage of the SUMO fusion protein: 100 % cleavage for the first, < 25 % cleavage for the second.

molecular target: scSUMO-MBP fusion protein with the bdSUMO^Mut11 exchanges

B1 was tested, and the “cleavage of SUMO-MBP fusion, 1 h” value was “allowed cleavage resistance against Ulp1, SUMOstar protease, hsSENP2 and bdSENP1”.
B2 was tested, and the “cleavage of SUMO-MBP fusion, 1 h” value was “allowed cleavage resistance against Ulp1, SUMOstar protease, hsSENP2 and bdSENP1”.

molecular target: bdSUMO D67K-MBP fusion protein

In the case of B1, the “cleavage of the SUMO fusion protein” value is reported as “resistant”.

B3 and B4 cannot be ordered by cleavage of the SUMO fusion protein: < 75 % cleavage for the first, < 75 % cleavage for the second.

First: B5
Second: B6
The cleavage of the SUMO fusion protein of the first is higher: 100 % cleavage for the first, < 25 % cleavage for the second.

Going from B7 to B2, the cleavage of the SUMO fusion protein falls from 100 % cleavage to < 25 % cleavage.

molecular target: bdSUMO-MBP fusion protein

Going from B1 to B3, the cleavage of the SUMO fusion protein falls from 100 % cleavage to < 50 % cleavage.

B4 and B5 cannot be ordered by cleavage of the SUMO fusion protein: < 25 % cleavage for the first, < 50 % cleavage for the second.

B6 and B7 cannot be ordered by cleavage of the SUMO fusion protein: < 25 % cleavage for the first, < 50 % cleavage for the second.

In the case of B2, the cleavage of the SUMO fusion protein is reported as 100 % cleavage.

In the case of B2, the “protease concentration required to efficiently cleave 100 µM cognate substrate, 1 h at 0 °C” value is reported as “Around 15-50 nM of these two proteases were required to efficiently cleave the cognate substrate”.

molecular target: hsSUMO2-MBP fusion protein with the bdSUMO^Mut1 exchanges

In the case of B1, the “cleavage of SUMO-MBP fusion, 1 h” value is reported as “allowed cleavage resistance against Ulp1, SUMOstar protease, hsSENP2 and bdSENP1”.
B2 was tested, and the “cleavage of SUMO-MBP fusion, 1 h” value was “allowed cleavage resistance against Ulp1, SUMOstar protease, hsSENP2 and bdSENP1”.

molecular target: bdSUMO Mut12-MBP fusion protein

With B1 the “cleavage of the SUMO fusion protein” value was “resistant”.

First: B3
Second: B4
The cleavage of the SUMO fusion protein of the first is lower: < 50 % cleavage for the first, 100 % cleavage for the second.

B5 and B6 cannot be ordered by cleavage of the SUMO fusion protein: < 50 % cleavage for the first, < 50 % cleavage for the second.

Going from B7 to B2, the cleavage of the SUMO fusion protein falls from 100 % cleavage to < 25 % cleavage.

molecular target: bdSUMO Mut13-MBP fusion protein

For B1, the “cleavage of the SUMO fusion protein” value was “resistant”.

First: B3
Second: B4
The cleavage of the SUMO fusion protein of the first is lower: < 75 % cleavage for the first, 100 % cleavage for the second.

Going from B5 to B6, the cleavage of the SUMO fusion protein falls from 100 % cleavage to < 75 % cleavage.

Compared with B7, B2 is lower in cleavage of the SUMO fusion protein: 100 % cleavage for the first, < 50 % cleavage for the second.

molecular target: hsSUMO2-MBP fusion protein

Going from B1 to B3, the cleavage of the SUMO fusion protein rises from < 25 % cleavage to 100 % cleavage.

B5 and B2 cannot be ordered by cleavage of the SUMO fusion protein: < 50 % cleavage for the first, < 50 % cleavage for the second.

In the case of B4, the “cleavage of the SUMO fusion protein” value is reported as “resistant”.
With B6 the “cleavage of the SUMO fusion protein” value was “resistant”.
For B7, the “cleavage of the SUMO fusion protein” value was “resistant”.

molecular target: bdSUMO^Mut1-MBP fusion protein

For B1, the “cleavage of the SUMO fusion protein” value was “resistant”.

B3 and B4 are the same in cleavage of the SUMO fusion protein: 100 % cleavage for the first, 100 % cleavage for the second.

B5 and B6 are the same in cleavage of the SUMO fusion protein: 100 % cleavage for the first, 100 % cleavage for the second.

First: B7
Second: B2
The cleavage of the SUMO fusion protein of the first is higher: 100 % cleavage for the first, < 25 % cleavage for the second.

molecular target: bdSUMO Mut11-MBP fusion protein

For B1, the “cleavage of the SUMO fusion protein” value was “resistant”.

First: B3
Second: B4
The cleavage of the SUMO fusion protein of the first is lower: < 75 % cleavage for the first, 100 % cleavage for the second.

Compared with B5, B6 is lower in cleavage of the SUMO fusion protein: 100 % cleavage for the first, < 50 % cleavage for the second.

First: B7
Second: B2
The cleavage of the SUMO fusion protein of the first is higher: 100 % cleavage for the first, < 25 % cleavage for the second.

molecular target: bdSUMO Mut8-MBP fusion protein

B1 was tested, and the “cleavage of the SUMO fusion protein” value was “resistant”.

B3 and B4 cannot be ordered by cleavage of the SUMO fusion protein: < 25 % cleavage for the first, < 75 % cleavage for the second.

B5 and B6 cannot be ordered by cleavage of the SUMO fusion protein: < 50 % cleavage for the first, < 25 % cleavage for the second.

B7 and B2 cannot be ordered by cleavage of the SUMO fusion protein: < 75 % cleavage for the first, < 25 % cleavage for the second.

molecular target: scSUMO-MBP fusion protein with the bdSUMO^Mut1 exchanges

In the case of B1, the “cleavage of SUMO-MBP fusion, 1 h” value is reported as “allowed cleavage resistance against Ulp1, SUMOstar protease, hsSENP2 and bdSENP1”.
With B2 the “cleavage of SUMO-MBP fusion, 1 h” value was “allowed cleavage resistance against Ulp1, SUMOstar protease, hsSENP2 and bdSENP1”.

molecular target: bdSUMO Mut10-MBP fusion protein

With B1 the “cleavage of the SUMO fusion protein” value was “resistant”.

B3 and B4 are the same in cleavage of the SUMO fusion protein: 100 % cleavage for the first, 100 % cleavage for the second.

Compared with B5, B6 is lower in cleavage of the SUMO fusion protein: 100 % cleavage for the first, < 50 % cleavage for the second.

First: B7
Second: B2
The cleavage of the SUMO fusion protein of the first is higher: 100 % cleavage for the first, < 25 % cleavage for the second.

molecular target: bdSUMO Mut15-MBP fusion protein

B1 was tested, and the “cleavage of the SUMO fusion protein” value was “resistant”.

Going from B3 to B4, the cleavage of the SUMO fusion protein rises from < 75 % cleavage to 100 % cleavage.

First: B5
Second: B6
The cleavage of the SUMO fusion protein of the first is higher: 100 % cleavage for the first, < 50 % cleavage for the second.

Compared with B7, B2 is lower in cleavage of the SUMO fusion protein: 100 % cleavage for the first, < 25 % cleavage for the second.
